Patent US20250154268A1 (NONA BIOSCIENCES SUZHOU, published 2025)
Where two headings read alike, the source gives them in different places.

Legend:
cynomolgus monkey CD25 [1] = target: T1, cynomolgus monkey CD25 (cynomolgus monkey, UniProt H6WS54 22-272); test: flow cytometry, HEK293-cynoCD25 cells
T1 construct: whole, on cells; also called cynoCD25
T1 sequence: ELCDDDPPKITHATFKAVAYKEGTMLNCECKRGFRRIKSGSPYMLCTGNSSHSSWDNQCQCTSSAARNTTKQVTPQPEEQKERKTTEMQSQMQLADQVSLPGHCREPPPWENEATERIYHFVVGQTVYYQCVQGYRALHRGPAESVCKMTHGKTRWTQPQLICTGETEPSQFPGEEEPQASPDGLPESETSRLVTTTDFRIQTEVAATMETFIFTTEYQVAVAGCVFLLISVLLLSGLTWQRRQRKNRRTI
Procedure: (§1) Briefly, the CHOK1-huCD25 cells and HEK293-cynoCD25 cells were digested, the SU-DHL-1 cells, Karpas299 cells, Treg cells and Teff cells were collected, and the cells were resuspended in PBS containing 2% BSA. The cells were adjusted to a cell density of 1×10⁶ cells/mL, respectively. […] The cells were incubated at 4° C. for 1 hour in the dark. After the incubation, the cells were rinsed twice by adding pre-chilled PBS containing 2% BSA at 100 μL/well, and centrifuged at 500 g at 4° C. for 5 minutes, and the supernatant was discarded. […] The cells were washed twice by adding pre-chilled PBS containing 2% BSA at 100 μL/well, and centrifuged at 500 g at 4° C. for 5 minutes, and the supernatant was discarded. Finally, the cells were resuspended in pre-chilled PBS containing 2% BSA at 200 μL/well, and the fluorescence signal values were read using a BD CantoII flow cytometer.

human CD25 [2] = target: T2, human CD25 (human, UniProt P01589 22-272); test: flow cytometry, Karpas299 cells
T2 construct: whole, on cells; Always presented on cells; also called huCD25; IL2Rα
T2 sequence (looked up): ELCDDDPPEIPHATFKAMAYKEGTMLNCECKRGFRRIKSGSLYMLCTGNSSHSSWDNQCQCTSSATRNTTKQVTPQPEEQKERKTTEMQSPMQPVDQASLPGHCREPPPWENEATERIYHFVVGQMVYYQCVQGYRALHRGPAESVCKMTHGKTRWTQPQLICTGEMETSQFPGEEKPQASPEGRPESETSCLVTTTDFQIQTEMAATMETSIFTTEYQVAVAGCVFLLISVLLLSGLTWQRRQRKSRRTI

human CD25 [3] = target: T2, human CD25; test: flow cytometry, Karpas299 cells; remark: listed apart in the source
Procedure: (§2) This example was intended to study the in-vitro binding activity of H2L2 monoclonal antibodies against human CD25 to human/cynomolgus monkey CD25. […] Briefly, the CHOK1-huCD25 cells and HEK293-cynoCD25 cells were digested, the SU-DHL-1 cells, Karpas299 cells, Treg cells and Teff cells were collected, and the cells were resuspended in PBS containing 2% BSA. The cells were adjusted to a cell density of 1×10⁶ cells/mL, respectively. […] The cells were incubated at 4° C. for 1 hour in the dark. After the incubation, the cells were rinsed twice by adding pre-chilled PBS containing 2% BSA at 100 μL/well, and centrifuged at 500 g at 4° C. for 5 minutes, and the supernatant was discarded. […] The cells were washed twice by adding pre-chilled PBS containing 2% BSA at 100 μL/well, and centrifuged at 500 g at 4° C. for 5 minutes, and the supernatant was discarded. Finally, the cells were resuspended in pre-chilled PBS containing 2% BSA at 200 μL/well, and the fluorescence signal values were read using a BD CantoII flow cytometer.

human CD25 [4] = target: T2, human CD25; test: flow cytometry, Karpas299 cells; remark: listed apart in the source
Procedure: as §1

human CD25 [5] = target: T2, human CD25; test: flow cytometry, CHOK1-huCD25 cells
Procedure: as §1

cynomolgus monkey CD25 [6] = target: T1, cynomolgus monkey CD25; test: flow cytometry, HEK293-cynoCD25 cells; remark: listed apart in the source
Procedure: as §2

human CD25 [7] = target: T2, human CD25; test: flow cytometry, SU-DHL-1 cells
Procedure: as §1

human CD25 [8] = target: T2, human CD25; test: flow cytometry, SU-DHL-1 cells; remark: listed apart in the source
Procedure: as §1

human CD25 [9] = target: T2, human CD25; test: flow cytometry, SU-DHL-1 cells; remark: listed apart in the source
Procedure: as §1

cynomolgus monkey CD25 [10] = target: T1, cynomolgus monkey CD25; test: flow cytometry, HEK293-cynoCD25 cells; remark: listed apart in the source
Procedure: as §1

cynomolgus monkey CD25 [11] = target: T1, cynomolgus monkey CD25; test: flow cytometry, HEK293-cynoCD25 cells; remark: listed apart in the source
Procedure: as §1

human CD25 [12] = target: T2, human CD25; test: flow cytometry, Karpas299 cells; remark: listed apart in the source
Procedure: as §2

human CD25 [13] = target: T2, human CD25; test: flow cytometry, SU-DHL-1 cells; remark: listed apart in the source
Procedure: as §1

human CD25 [14] = target: T2, human CD25; test: flow cytometry, Karpas299 cells; remark: listed apart in the source
Procedure: as §2

human CD25 [15] = target: T2, human CD25; test: flow cytometry, SU-DHL-1 cells; remark: listed apart in the source
Procedure: as §1

human CD25 [16] = target: T2, human CD25; test: flow cytometry, SU-DHL-1 cells; remark: listed apart in the source
Procedure: as §1

cynomolgus monkey CD25 [17] = target: T1, cynomolgus monkey CD25; test: flow cytometry, HEK293-cynoCD25 cells; remark: listed apart in the source
Procedure: as §1

human CD25 [18] = target: T2, human CD25; test: flow cytometry, Karpas299 cells; remark: listed apart in the source
human CD25 [19] = target: T2, human CD25; test: flow cytometry, SU-DHL-1 cells; remark: listed apart in the source
Procedure: as §1

human CD25 [20] = target: T2, human CD25; test: flow cytometry, SU-DHL-1 cells; remark: listed apart in the source
Procedure: as §1

human CD25 [21] = target: T2, human CD25; test: flow cytometry, CHOK1-huCD25 cells; remark: listed apart in the source
Procedure: as §2

cynomolgus monkey CD25 [22] = target: T1, cynomolgus monkey CD25; test: flow cytometry, HEK293-cynoCD25 cells; remark: listed apart in the source
Procedure: as §2

human CD25 [23] = target: T2, human CD25; test: flow cytometry, Karpas299 cells; remark: listed apart in the source
human CD25 [24] = target: T2, human CD25; test: flow cytometry, Karpas299 cells; remark: listed apart in the source
Procedure: as §1

human CD25 [25] = target: T2, human CD25; test: flow cytometry, Karpas299 cells; remark: listed apart in the source
Procedure: as §2

human CD25 [26] = target: T2, human CD25; test: flow cytometry, SU-DHL-1 cells; remark: listed apart in the source
Procedure: as §1

B1: RG6292 (antibody, human IgG1, kappa, V domains shown)
VH: QVQLVQSGAEVKKPGSSVKVSCKASGGTFSSLAISWVRQAPGQGLEWMGGIIPIFGTANYAQKFQGRVTITADESTSTAYMELSSLRSEDTAVYYCARGGSVSGTLVDFDIWGQGTMVTVSS
VL: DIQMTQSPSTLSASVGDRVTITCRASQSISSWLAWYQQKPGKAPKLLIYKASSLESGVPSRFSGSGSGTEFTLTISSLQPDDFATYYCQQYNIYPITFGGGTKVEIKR
notes: also called PR004639; PR004639AF
EC50 (cynomolgus monkey CD25 [1]): 40 nM | Maximum MFI (cynomolgus monkey CD25 [1]): 2660 MFI | EC50 (human CD25 [2]): 5 nM | Maximum MFI (human CD25 [2]): 10100 MFI | EC50 (human CD25 [3]): 2.22 nM | EC50 (human CD25 [4]): 30 nM | Maximum MFI (human CD25 [4]): 11800 MFI | EC50 (human CD25 [5]): 40 nM | Maximum MFI (human CD25 [5]): 2660 MFI | EC50 (cynomolgus monkey CD25 [6]): 80.8 nM | EC50 (human CD25 [7]): 3.87 nM | Maximum MFI (human CD25 [7]): 32900 MFI | EC50 (human CD25 [8]): 1.28 nM | EC50 (human CD25 [9]): 1.57 nM | Maximum MFI (human CD25 [9]): 28000 MFI | EC50 (cynomolgus monkey CD25 [10]): 4.33 nM | Maximum MFI (cynomolgus monkey CD25 [10]): 125000 MFI | EC50 (cynomolgus monkey CD25 [11]): 20.9 nM | Maximum MFI (cynomolgus monkey CD25 [11]): 89700 MFI | EC50 (human CD25 [12]): 11.8 nM | EC50 (human CD25 [13]): 1.29 nM | EC50 (human CD25 [14]): 3.41 nM | EC50 (human CD25 [15]): 0.95 nM | EC50 (human CD25 [16]): 1.35 nM | EC50 (cynomolgus monkey CD25 [17]): 80.8 nM | Maximum MFI (cynomolgus monkey CD25 [17]): 8590 MFI | EC50 (human CD25 [18]): 30 nM | Maximum MFI (human CD25 [18]): 11800 MFI | EC50 (human CD25 [19]): 1.28 nM | Maximum MFI (human CD25 [19]): 29700 MFI | EC50 (human CD25 [20]): 3.87 nM | Maximum MFI (human CD25 [20]): 32900 MFI | EC50 (human CD25 [21]): 45.8 nM | EC50 (cynomolgus monkey CD25 [22]): 6.75 nM | EC50 (human CD25 [23]): 5 nM | Maximum MFI (human CD25 [23]): 9560 MFI | EC50 (human CD25 [24]): 14.3 nM | Maximum MFI (human CD25 [24]): 20900 MFI | EC50 (human CD25 [25]): 5 nM | EC50 (human CD25 [26]): 1.4 nM | Maximum MFI (human CD25 [26]): 30700 MFI
